Assay [1] addresses human GLP-1 receptor (human, UniProt P43220 24-463). As to the kind of experiment: cell-based or functional assay.
The target in assay [2] is T1, human GIP receptor (human, UniProt P48546 22-466).
T1 sequence (looked up): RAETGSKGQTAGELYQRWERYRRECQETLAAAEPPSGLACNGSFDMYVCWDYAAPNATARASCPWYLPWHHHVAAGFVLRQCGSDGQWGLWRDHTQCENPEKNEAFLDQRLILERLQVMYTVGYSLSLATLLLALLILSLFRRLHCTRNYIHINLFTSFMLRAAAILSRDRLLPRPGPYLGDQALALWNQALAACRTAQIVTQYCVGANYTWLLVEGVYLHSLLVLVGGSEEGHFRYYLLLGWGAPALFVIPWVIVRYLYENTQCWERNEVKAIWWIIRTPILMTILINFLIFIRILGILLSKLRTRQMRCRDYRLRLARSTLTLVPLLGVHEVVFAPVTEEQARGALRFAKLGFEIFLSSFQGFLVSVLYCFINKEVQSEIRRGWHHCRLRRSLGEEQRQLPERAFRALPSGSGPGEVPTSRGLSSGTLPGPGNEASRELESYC
Description: cell-based or functional assay.

The target of assay [3] is human glucagon receptor (human, UniProt P47871 26-477). As to the kind of experiment: cell-based or functional assay.
Assay [4] concerns the target T2, human GIP receptor (human, UniProt P48546 22-466).
T2 construct: whole, on cells; also called hGIPR; human glucose-dependent insulinotropic polypeptide receptor
T2 sequence (looked up): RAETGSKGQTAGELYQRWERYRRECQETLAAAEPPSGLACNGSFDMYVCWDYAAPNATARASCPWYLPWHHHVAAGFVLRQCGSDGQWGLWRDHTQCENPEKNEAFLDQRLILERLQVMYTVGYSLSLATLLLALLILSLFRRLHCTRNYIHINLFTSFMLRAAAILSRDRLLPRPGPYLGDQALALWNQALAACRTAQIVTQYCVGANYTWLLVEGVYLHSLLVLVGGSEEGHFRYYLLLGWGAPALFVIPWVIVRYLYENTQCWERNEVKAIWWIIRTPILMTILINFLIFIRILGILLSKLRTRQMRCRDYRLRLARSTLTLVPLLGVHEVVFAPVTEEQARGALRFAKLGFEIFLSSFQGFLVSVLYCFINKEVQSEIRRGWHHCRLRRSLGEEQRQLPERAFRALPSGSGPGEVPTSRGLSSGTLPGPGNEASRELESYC
Description: SPA competition vs [125I]-GIP, hGIPR membranes. On the procedure: The binding buffer contains 25 mM HEPES, pH 7.4, 2.5 mM CaCl₂, 1 mM MgCl₂, 0.1% (w/v) bacitracin, 0.003% (w/v) TWEEN®-20, and Roche Complete™ Protease Inhibitors without EDTA. […] Plates are sealed and mixed on a plate shaker (setting 6) for 1 minute and read with a PerkinElmer Trilux MicroBeta® scintillation counter after 2.5 to 12 hours of incubation/settling time at room temperature.
(§1) Data are analyzed using four-parameter (curve maximum, curve minimum, IC₅₀, Hill slope) nonlinear regression routines (Genedata Screener, version 12.0.4, Genedata AG, Basal, Switzerland). […] Values for Kᵢ are reported as the geometric mean, with error expressed as the standard error of the mean (SEM) and n is equal to the number of independent replicates (determined in assays performed on different days). Geometric Means are calculated as follows: […]

In assay [5] the target is T3, human GLP-1 receptor (human, UniProt P43220 24-463).
T3 construct: whole, on cells; also called hGLP-1R; human glucagon-like peptide-1 receptor
Description: SPA competition vs [125I]-GLP-1, hGLP-1R membranes. The method, then:
The binding buffer contains 25 mM HEPES, pH 7.4, 2.5 mM CaCl₂, 1 mM MgCl₂, 0.1% (w/v) bacitracin, 0.003% (w/v) TWEEN®-20, and Roche Complete™ Protease Inhibitors without EDTA.
as §1

B1: Example 14 (peptide)
peptide: YXEGTXTSDXSIXLDXKAQXEFIXXLIEGGKSSGAPPPS
modifications: Aib2, αMeF(2F)6, 4Pal10, αMeL13, Orn16, Aib20, D-Glu24, αMeY25, K17 and K31: K(AEEA-(γ-Glu)-CO-(CH2)10-CH3), C-terminal NH2
As to B1, the “EC50, cAMP” value in assay [1] was 0.0884 nM; in assay [2], 0.00802 nM; in assay [3], more than 9950 nM.

B2: Example 148 (peptide)
peptide: YXEGTXTSDXSIXLDXKAQXEXIXXLIEGGKSSGAPPPS
modifications: Aib2, αMeF(2F)6, 4Pal10, αMeL13, Orn16, Aib20, ChA22, D-Glu24, αMeY25, K17 and K31: K(AEEA2-(γ-Glu)-CO-(CH2)12-CO2H), C-terminal NH2
Regarding B2, the “EC50, cAMP” value in assay [1] was 1.77 nM; in assay [2], 0.0209 nM; in assay [3], more than 9950 nM. Further, the “Emax, cAMP” value in assay [1] came out at 94.5%.

B3: Y-Aib-EGT-αMeF(2F)-TSD-4Pal-SI-αMeL-LD-Orn-K((2-[2-(2-Amino-ethoxy)-ethoxy]-acetyl)2-(εK)-(γ-Glu)-CO-(CH2)12-CO2H)AQ-Aib-EFI-(D-Glu)-αMeY-LIEGGK((2-[2-(2-Amino- … (peptide)
peptide: YXEGTXTSDXSIXLDXKAQXEFIXXLIEGGKSSGAPPPS
modifications: Aib2, αMeF(2F)6, 4Pal10, αMeL13, Orn16, K17(Z1), Aib20, D-Glu24, αMeY25, K31(Z1), C-term NH2; Z1=AEEA2-(εK)-(γ-Glu)-CO-(CH2)12-CO2H
Take B3: the Ki in assay [4] stood at 0.131 nM; in assay [5], 2.81 nM.

B4: Y-Aib-EGT-αMeF(2F)-TSD-4Pal-SI-αMeL-LD-Orn-K((γ-Glu)-(2-[2-(2-Amino-ethoxy)-ethoxy]-acetyl)2-CO-(CH2)12-CO2H)AQ-Aib-EFI-(D-Glu)-αMeY-LIEGGK((γ-Glu)-(2-[2-(2-Ami … (peptide)
peptide: YXEGTXTSDXSIXLDXKAQXEFIXXLIEGGKSSGAPPPS
modifications: Aib2, αMeF(2F)6, 4Pal10, αMeL13, Orn16, K17(Z1), Aib20, D-Glu24, αMeY25, K31(Z1), C-term NH2; Z1=(γ-Glu)-AEEA2-CO-(CH2)12-CO2H
For the molecule B4, the figures for the Ki in assay [4] and in assay [5] were 0.108 nM and 2.06 nM, respectively.

B5: Y-Aib-EGT-αMeF-TSD-4Pal-SI-αMeL-LD-Orn-K((2-[2-(2-Amino-ethoxy)-ethoxy]-acetyl)2-(γ-Glu)-CO-(CH2)12-CO2H)AQ-Aib-EFI-(D-Glu)-αMeF-LIEGGK((2-[2-(2-Amino-ethoxy)-e … (peptide)
peptide: YXEGTXTSDXSIXLDXKAQXEFIXXLIEGGKSSGAPPPS
modifications: Aib2, αMeF6, 4Pal10, αMeL13, Orn16, K17(Z1), Aib20, D-Glu24, αMeF25, K31(Z1), C-term NH2; Z1=AEEA2-(γ-Glu)-CO-(CH2)12-CO2H
As for B5, the Ki in assay [4] stood at 0.0621 nM; in assay [5], 3.67 nM.

B6: Y-Aib-EGT-αMeF(2F)-TSD-4Pal-SI-αMeL-LD-Orn-K((2-[2-(2-Amino-ethoxy)-ethoxy]-acetyl)2-(γ-Glu)-(10-(4-carboxyphenoxy)decanoyl))AQ-Aib-EFI-(D-Glu)-αMeY-LIEGGK((2-[ … (peptide)
peptide: YXEGTXTSDXSIXLDXKAQXEFIXXLIEGGKSSGAPPPS
modifications: Aib2, αMeF(2F)6, 4Pal10, αMeL13, Orn16, K17(Z1), Aib20, D-Glu24, αMeY25, K31(Z1), C-term NH2; Z1=AEEA2-(γ-Glu)-(10-(4-carboxyphenoxy)decanoyl)
The molecule B6 had a Ki in assay [4] of 0.0446 nM.

B7: Example 15 (peptide)
peptide: YXEGTXTSDXSIXLDXKAQXKFIXXLIEGGPSSGAPPPS
modifications: Aib2, αMeF(2F)6, 4Pal10, αMeL13, Orn16, Aib20, D-Glu24, αMeY25, K17 and K21: K(AEEA2-(γ-Glu)-CO-(CH2)12-CO2H), C-terminal NH2
Consider B7, for which the “EC50, cAMP” value in assay [1] was 0.995 nM; in assay [2] it was 0.0133 nM; in assay [3] it was more than 9950 nM.

B8: Example 18 (peptide)
peptide: YXEGTXTSDXSIXLDXKAQXEFIXXLIEGKPSSGAPPPS
modifications: Aib2, αMeF(2F)6, 4Pal10, αMeL13, Orn16, Aib20, D-Glu24, αMeY25, K17 and K30: K(AEEA2-(γ-Glu)-CO-(CH2)12-CO2H), C-terminal NH2
Consider B8, for which the “EC50, cAMP” value in assay [1] is 5.06 nM; in assay [2], 0.0226 nM; in assay [3], more than 9950 nM. In addition, in assay [2], the “Emax, cAMP” value worked out at 97.1%.

B9: Example 149 (peptide)
peptide: YXEGTXTSDXSIXLDXKAQXEFIXXLIEGGKSSGAPPPS
modifications: Aib2, αMeF(2F)6, 4Pal10, αMeL13, Orn16, Orn20, D-Glu24, αMeY25, K17 and K31: K(AEEA2-(γ-Glu)-CO-(CH2)12-CO2H), C-terminal NH2
In the case of B9, the “EC50, cAMP” value in assay [1] is 1.5 nM; in assay [2], 0.0791 nM; in assay [3], more than 9950 nM.

B10: Y-Aib-EGT-αMeF(2F)-TSD-4Pal-SI-αMeL-LD-Orn-K((2-[2-(2-Amino-ethoxy)-ethoxy]-acetyl)2-(γ-Glu)-CO-(CH2)12-CO2H)AQ-Aib-EFI-(D-Glu)-αMeY-LIEGGK((2-[2-(2-Amino-ethox … (peptide)
peptide: YXEGTXTSDXSIXLDXKAQXEFIXXLIEGGKSSGAPPPS
modifications: Aib2, αMeF(2F)6, 4Pal10, αMeL13, Orn16, K17(Z1), Aib20, D-Glu24, αMeY25, K31(Z1), C-term NH2; Z1=AEEA2-(γ-Glu)-CO-(CH2)12-CO2H
Take B10: the values for the Ki in assay [4] and in assay [5] were 0.088 nM and 2.33 nM, respectively.

B11: Y-Aib-EGT-αMeF(2F)-TSD-4Pal-SI-αMeL-LD-Orn-K((2-[2-(2-Amino-ethoxy)-ethoxy]-acetyl)-(γ-Glu)-(2-[2-(2-Amino-ethoxy)-ethoxy]-acetyl)-CO-(CH2)12-CO2H)AQ-Aib-EFI-(D … (peptide)
peptide: YXEGTXTSDXSIXLDXKAQXEFIXXLIEGGKSSGAPPPS
modifications: Aib2, αMeF(2F)6, 4Pal10, αMeL13, Orn16, K17(Z1), Aib20, D-Glu24, αMeY25, K31(Z1), C-term NH2; Z1=AEEA-(γ-Glu)-AEEA-CO-(CH2)12-CO2H
On to B11, for which the Ki in assay [4] was determined as 0.092 nM; in assay [5], 2.5 nM.

B12: Y-Aib-EGT-αMeF(2F)-TSD-4Pal-SI-αMeL-LD-Orn-K((2-[2-(2-Amino-ethoxy)-ethoxy]-acetyl)3-(γ-Glu)-CO-(CH2)12-CO2H)AQ-Aib-EFI-(D-Glu)-αMeY-LIEGGK((2-[2-(2-Amino-ethox … (peptide)
peptide: YXEGTXTSDXSIXLDXKAQXEFIXXLIEGGKSSGAPPPS
modifications: Aib2, αMeF(2F)6, 4Pal10, αMeL13, Orn16, K17(Z1), Aib20, D-Glu24, αMeY25, K31(Z1), C-term NH2; Z1=AEEA3-(γ-Glu)-CO-(CH2)12-CO2H
In the case of B12, the inhibition constant (Ki) in assay [4] was determined as 0.0653 nM; in assay [5], 2.66 nM.

B13: Y-Aib-EGT-αMeF-TSD-4Pal-SI-αMeL-LD-Orn-K((2-[2-(2-Amino-ethoxy)-ethoxy]-acetyl)2-(γ-Glu)-CO-(CH2)12-CO2H)AQ-Aib-EFI-(D-Glu)-αMeY-LIEGGK((2-[2-(2-Amino-ethoxy)-e … (peptide)
peptide: YXEGTXTSDXSIXLDXKAQXEFIXXLIEGGKSSGAPPPS
modifications: Aib2, αMeF6, 4Pal10, αMeL13, Orn16, K17(Z1), Aib20, D-Glu24, αMeY25, K31(Z1), C-term NH2; Z1=AEEA2-(γ-Glu)-CO-(CH2)12-CO2H
As to B13, the inhibitory constant (Ki) in assay [4] was found to be 0.0595 nM; in assay [5], 3.08 nM.

B14: Example 17 (peptide)
peptide: YXEGTXTSDXSIXLDXKAQXEFIXXLIKGGPSSGAPPPS
modifications: Aib2, αMeF(2F)6, 4Pal10, αMeL13, Orn16, Aib20, D-Glu24, αMeY25, K17 and K28: K(AEEA2-(γ-Glu)-CO-(CH2)12-CO2H), C-terminal NH2
On to B14, for which the “EC50, cAMP” value in assay [1] is 1.57 nM; in assay [2], 0.0129 nM; in assay [3], more than 9950 nM.

B15: Y-Aib-EGT-αMeF(2F)-TSD-4Pal-SI-αMeL-LD-Orn-K((εK)-(2-[2-(2-Amino-ethoxy)-ethoxy]-acetyl)2-(γ-Glu)-CO-(CH2)12-CO2H)AQ-Aib-EFI-(D-Glu)-αMeY-LIEGGK((εK)-(2-[2-(2-A … (peptide)
peptide: YXEGTXTSDXSIXLDXKAQXEFIXXLIEGGKSSGAPPPS
modifications: Aib2, αMeF(2F)6, 4Pal10, αMeL13, Orn16, K17(Z1), Aib20, D-Glu24, αMeY25, K31(Z1), C-term NH2; Z1=(εK)-AEEA2-(γ-Glu)-CO-(CH2)12-CO2H
As to B15, the Ki in assay [4] amounted to 0.171 nM; in assay [5], 2.22 nM.

As a reminder, the Ki is the dissociation constant of the complex between target and ligand, obtained from inhibition or displacement.

The values are drawn from patent US20230265151A1, “GIP/GLP1 CO-AGONIST COMPOUNDS” (priority 2020, published 2023).
